Experiment: label from the status in PepcDB records

| Sequence | protein production |
| --- | --- |
| MSLQENISVTDSYSTGNAAQAMLEKLLQIYDVKMLVAQLNGVGENHWSAAILKRALANDSAWHRLSEKEFAHLQTLLPKPPEHHPHYAFRFIDLFAGIGGIRRGFESIGGQCVFTSEWNKHAVRTYKANHYCDPATHHFNEDIRDITLSHQEGVSDEAAAEHIRQHIPEHDVLLAGFPCQPFSLAGVSKKNSLGRAHGFACDTQGTLFFDVVRIIDARRPAMFVLENVKNLKSHDKGKTFRIIMQTLDELGYDVADAEDNGPDDPKIIDGKHFLPQHRERIVLVGFRRDLNLKADFTLRDISECFPAQRVTLAQLLDPMVEAKYILTPVLWKYLYRYAKKHQARGNGFGYGMVYPNNPQSVTRTLSARYYKDGAEILIDRGWDMATGEKDFDDPLNQQHRPRRLTPRECARLMGFEAPGEAKFRIPVSDTQAYRQFGNSVVVPVFAAVAKLLEPKIKQAVALRQQEAQHGRRSREGHHHHHH | not failed |
| MSLQTLLFSFQGRIGRQAFWLWNICYYAMIAGFAMGSNLLFPDVAHLILPVFLLVVLVPDLAITAKRWHDRDKSSWWLLLNVPLVIGRMTIPAGELAVNTQPGMLETLISFVALLCGAWILVECGFLSGTDGSNRFGAEPKWIKKS | failed |
| MSLQTRKQREDAKREAWKKERQEKKALEAQQDSVSYVQAINALKNGSFVLEADNVVFRNGIMRFVSSNTNYVEVNDGQGIIQTAFTNFVYNWSPNGLGGVTVQGNVNGISMRQDKDGNVYYNYGINGIAVSATVSIVLTGGTNQASVTINPNFSGNTLTMNGYLVPYNEGHHHHHH | not failed |
| MSLRAELNQGLIDFLKASPTPFHATASLARRLEAAGYRRLDERDAWHTETGGRYYVTRNDSSLIAIRLGRRSPLESGFRLVGAHTDSPCLRVKPNPEIARNGFLQLGVEVYGGALFAPWFDRDLSLAGRVTFRANGKLESRLVDFRKAIAVIPNLAIHLNRAANEGWPINAQNELPPIIAQLAPGEAADFRLLLDEQLLREHGITADVVLDYELSFYDTQSAAVVGLNDEFIAGARLDNLLSCHAGLEALLNAEGDENCILVCTDHEEVGSCSHCGADGPFLEQVLRRLLPEGDAFSRAIQRSLLVSADNAHGVHPNYADRHDANHGPALNGGPVIKINSNQRYATNSETAGFFRHLCQDSEVPVQSFVTRSDMGCGSTIGPITASQVGVRTVDIGLPTFAMHSIRELAGSHDLAHLVKVLGAFYASSELEGHHHHHH | not failed |
| MSLRILIVDDEKLTRDGLIANINWKALSFDQIDQADDGINAIQIALKHPPNVLLTDVRMPRMDGIELVDNILKLYPDCSVIFMSGYSDKEYLKAAIKFRAIRYVEKPIDPSEIMDALKQSIQTVLQHQAQQDSEGHHHHHH | not failed |
| MSLRPQTSFIFDLDGTLTDSVYQNVAAWKEALDAENIPLAMWRIHRKIGMSGGLMLKSLSRETGMSITDEQAERLSEKHAQAYERLQHQIIALPGAVELLETLDKENLKWCIATSGGIDTATINLKALKLDINKINIVTRDDVSYGKPDPDLFLAAAKKIGAPIDECLVIGDAIWDMLAARRCKATGVGLLSGGYDIGELERAGALRVYEDPLDLLNHLDEIASREGHHHHHH | not failed |
| MSLSAQADARPTPAPSFSGVTVDGKPFSSASLKGKAYIVNFFATWCPPCRSEIPDMVQVQKTWASRGFTFVGIAVNEQLPNVKNYMKTQGIIYPVMMATPELIRAFNGYIDGGITGIPTSFVIDASGNVSGVIVGPRSKADFDRIVKMALGAKAATKEGHHHHHH | not failed |
| MSLSDAVNKHPKSPNPQLCAVTLLGNLVATPDIRYRANPATAVTEIVLATSSKWLDKITNKYKEWTSYHHVKVEGELVELALLNANKGDIILLHGYLSNIKPKSTDKSTNHLGIVHANFVQKFEKGYTQAINQIHCSAQLTSKPKLMLTEQNKNITQANIVINQHIYNTDKQAWQTISVERAIHVWGKQAQYLAEHGDIGDELMLEGKLSYTSGVSKDQFIEVKNVHLFKGTLEHHHHHH | not failed |
| MSLSDLLYEIQDKVGLLTMNRISKHNAFDNQLLTEMRIRLDSAINDTNVRVIVLKANGKHFSAGADLTWMQSMANFTEEENLEDSLVLGNLMYSISQSPKPTIAMVQGAAFGGGAGLAAACDIAIASTSARFCFSEVKLGLIPAVISPYVVRAIGERAAKMLFMSAEVFDATRAYSLNLVQHCVPDDTLLEFTLKYASQISNNAPEAVKNSKQLAQYVANKKIDEELVRYTASLIAHKRVSDEGQEGLKAFLNKEIPNWNEGHHHHHH | not failed |
| MSLSGALKENSGKPSEVEYTHFKDLQALEMERGRLYETIVVTWDDSMVGNAAPIGVLCTGDDTVTLYLYQGTRTVENVLNNGRFTVNVTLDPLIFTDSTLGDLEEDMFSHYRDFLHLRGADAFFTAEVVSVKKLVKRDRFGESELHVVKARAGDVMRAESFRMALNRGIYAVIESLIAYTRAEFSDPLVLRERIAEMNRVARKVGGPREKEAMRRIIQALESKISEGHHHHHH | not failed |
| MSLSKILIAGCGDLGLELARRLTAQGHEVTGLRRSAQPMPAGVQTLIADVTRPDTLASIVHLRPEILVYCVAASEYSDEHYRLSYVEGLRNTLSALEGAPLQHVFFVSSTGVYGQEVEEWLDEDTPPIAKDFSGKRMLEAEALLAAYSSTILRFSGIYGPGRLRMIRQAQTPEQWPARNAWTNRIHRDDGAAFIAYLIQQRSHAVPERLYIVTDNQPLPVHDLLRWLADRQGIAYPAGATPPVQGNKKLSNARLLASGYQLIYPDYVSGYGALLAAMREGHHHHHH | not failed |
| MSLSKKIAVIGECMIELSEKGADVKRGFGGDTLNTSVYIARQVDPAALTVHYVTALGTDSFSQQMLDAWHGENVDTSLTQRMENRLPGLYYIETDSTGERTFYYWRNEAAAKFWLASEQSAAICEELANFDYLYLSGISLAILSPTSREKLLSLLRECRAKGGKVIFDNNYRPRLWASKEETQQVYQQMLECTDIAFLTLDDEDALWGQQPVEDVIARTHNAGVKEVVVKRGADSCLVSIAGEALVDVPAVKLPKEKVIDTTAAGDSFSAGYLAVRLTGGSAENAAKRGHLTASTVIQYRGAIIPREAMPAEGHHHHHH | not failed |
| MSLSLIKVGLVGIGAQMQENLLPSLLQMQDIRIVAACDSDLERARRVHRFISDIPVLDNVPAMLNQVPLDAVVMAGPPQLHFEMGLLAMSKGVNVFVEKPPCATLEELETLIDAARRSDVVSGVGMNFKFARPVRQLREMTQVDEFGETLHIQLNHYANKPRAPLWGLDSTLRSFLLAQAIHTIDLAITFGDGELRRVQSSVQRHDDALIVRADMAFSSGATASLLAGTSFPYFEFDMKLVSSSSTLVELDNLWNITLHEPEHATRPTGAAKRWRGAWQPGPLDSGYERSGYHGELHQFFQAIREHRRFEADFASLLPTYRVIEEICSADAVAQGLQNAHSRIRTGIESLSEGHHHHHH | not failed |
| MSLSNIETVPASIEMKPNPTITVFERSPDGGRGLARDMPVRWALEEVGRPYHVRRLSFEAMKEASHLAYQPFGQIPSYEQGDLILFESGAIVMHIAQHHSGLLPEDQLRRARTVAWMFAALNTIEPSILNFTTVWLFERNEPWHEARLARTKEQLLKRLDELSAWLGDREWLEGSFSAADILMICVLRRLESSGILKDYGNLLAYVERGKARPAFKRAFDAQLAVFTAASKNEGHHHHHH | not failed |
| MSLSNRAGEILIVEDSPTQAEHLKHILEETGYQTEHVRNGREAVRFLSLTRPDLIISDVLMPEMDGYALCRWLKGQPDLRTIPVILLTILSDPRDVVRSLECGADDFITKPCKDVVLASHVKRLLSGVKRTEERYSRESITLAFGNEGHHHHHH | not failed |
| MSLSQEMIKKWLDEEGFLRMEVPDENARFHYVVNYPEDHVIDIIQPAGKDDMILIACATSVSPEHQAGIRALSMEKRTEFIWKVRFTLNRFGVDFQLDHPENVLNSYLVTDEIFFDGLSKDRLISSIKNVFRAKLQVMWMIQERFGEERPEHDSMYVEGHHHHHH | not failed |
| MSLSQRTLLLLSQDNAHYERLLKAAHLPHLRILRADNQSDAEKLIGEAHILMAEPARAKPLLAKANKLSWFQSTYAGVDVLLDARCRRDYQLTNVRGIFGPLMSEYVFGHLLSLMRQLPLYREQQKQRLWQSHPYQGLKGRTLLILGTGSIGQHIAHTGKHFGMKVLGVSRSGRERAGFDQVYQLPALNKMLAQADVIVSVLPATRETHHLFTASRFEHCKPGAILFNVGRGNAINEGDLLTALRTGKLGMAVLDVFEQEPLPADSPLWGQPNLIITPHNSAYSFPDDVAQIFVRNYIRFIDGQPLDGKIDFDKGYEGHHHHHH | not failed |
| MSLSSLLIIFSSSFMALFPVINPLGNGFVVNGFFADLDPSQRKTAIQKLTINFIMIGVGTLLIGHLFLLIFGLAIPVIQLGGGILICKTAIELLGDSNSSDKEGTSQNVDSFKWKSIEQKIFYPITFPISIGPGSISVIFTLMASASVKGKLLHTGINYLVIALVIICMAGILYVFLSQGQRIIQKLGPVGNQIINKLVAFFTFCIGIQISVTGISQIFHLNIL | failed |
| MSLSVPFEYTPIAQSVLDECEHLDTASLSDALDSLGIDGGLPGIASQVPGTRCVGIAFTVQYQPVDASEGFRGAANYIDQVPSGSVIVSSNSGRHDCTVWGDIMTHFALANGIKGTVIDGVARDIDTVINCNYPLFSRGRFMQSAKNRTQLKAVQVPLVIDGITIQPGDLMVCDGSGCVVVPQQLAAEVVLRARAVEQTERRIIEAISSGSTLEQARMTYRYDQPWLSEAEHGGTQEGHHHHHH | not failed |
| MSLSYVKEGLAVLEDGRLIYITPEEFRQLLQGDAILAVYSKTCPHCHRDWPQLIQASKEVDVPIVMFIWGSLIGERELSAARLEMNKAGVEGTPTLVFYKEGRIVDKLVGATPWSLKVEKAREIYGGEGHHHHHH | not failed |
| MSLTADTKRPLTLRDVSEASGVSEMTVSRVLRNRGDVSDATRARVLAAAKELGYVPNKIAGALASNRVNLVAVIIPSLSNMVFPEVLTGINQVLEDTELQPVVGVTDYLPEKEEKVLYEMLSWRPSGVIIAGLEHSEAARAMLDAAGIPVVEIMDSDGKPVDAMVGISHRRAGREMAQAILKAGYRRIGFMGTKMPLDYRARKRFEGFTEVLGKNGVEIEDREFYSGGSALAKGREMTQAMLERSPDLDFLYYSNDMIAAGGLLYLLEQGIDIPGQIGLAGFNNVELLQGLPRKLATMDACRLEIGRKAAEIIAKRLEDPEAEIETRITLEPKISYGDTLKREGHHHHHH | not failed |
| MSLTDTKVKNAKPSEKVVKLTDGFGLYLLVHTNGSKYWQLGYRFEGKQKVFSIGVYPAVSLANARQRRDEAKKLLAAGVDPSAKKRADNKSVQEKRNNTRAFKTVAKSWFATKTTWSEDYQRSVWTRLETYLFPDIGNKDIAELDTGDLLVPIKKIEKLGYLEIAMRVKQYATAIMRYAVQQKMIRFNPAYDLEGAVQKPQTEHRPAIELEEIPTLLERIEGYKGRSRLTQLAIKLNLLIFIRSSELRFARWSEIDFKSGLWVIPEQREAIKGIKHSDRGAKMRRKHYVPLCEQALVILGELKDLTYDVNGDDGFILTGCYDAMKPMSENTINKALRKMGYDTKTDLCGHGFRTLACSALIESGIWPEDVVELQMSHMEKNNVRAAYTHKAKHLEQRRLMLQWWADFLDANGSGMVRPFEFAQGATQY | failed |
| MSLTEKFRPTLKDVARQAGVSIATASRALADNPAVAASTRERIQQLASDLGYRANAQARALRSSRSNTIGVIVPSLINHYFAAMVTEIQSTASKAGLATIITNSNEDATTMSGSLEFLTSHGVDGIICVPNEECANQLEDLQKQGMPVVLVDRELPGDSTIPTATSNPQPGIAAAVELLAHNNALPIGYLSGPMDTSTGRERLEDFKAACANSKIGEQLVFLGGYEQSVGFEGATKLLDQGAKTLFAGDSMMTIGVIEACHKAGLVIGKDVSVIGFDTHPLFALQPHPLTVIDQNVEQLAQRAVSILTELIAGTVPSVTKTTIPTALIHRESIINSTLRKEGHHHHHH | not failed |
